Assay [1] has as its target T1, KDR-alkaline phosphatase (AP) soluble fusion protein (human, UniProt P35968 20-764).
T1 construct: Expressed in NIH 3T3 cells as in Lu et al. 2000; also called KDR-AP; full length KDR-AP; not shown: alkaline phosphatase (AP) fusion partner
Put plainly: BIAcore SPR, KDR immobilized. The method, then:
The binding kinetics of soluble Fab proteins to KDR were measured by surface plasmon resonance using a BIAcore biosensor (Pharmacia Biosensor). KDR-AP fusion protein was immobilized onto a sensor chip and soluble Fab proteins were injected at concentrations ranging from 1.5 nM to 100 nM. Sensorgrams were obtained at each concentration and were evaluated using a program, BIA Evaluation 2.0, to determine the rate constants kon and koff. Kd was calculated from the ratio of rate constants koff/kon.
Antibody affinity or avidity was determined by BIAcore analysis, as above. The binding kinetics, i.e., the association rate constant (kon) and the dissociation rate constant (koff), of the anti-KDR antibodies were measured and the dissociation constant, Kd, was calculated (Table 4).
For orientation: In SPR one partner is held on a chip, and binding of the other changes the refractive index at the surface.

The target in assay [2] is T2, Flk-1-AP soluble fusion protein (murine, UniProt P35918 20-762).
T2 construct: Soluble fusion protein from NIH 3T3 cells; also called fetal liver kinase 1; not shown: alkaline phosphatase (AP) fusion partner
Put plainly: competitive blocking ELISA: Fab pre-incubated with Flk-1-AP, then binding of Flk-1-AP to immobilised VEGF165, A405. On the technique in general: ELISA stands for enzyme-linked immunosorbent assay.

A further assay addresses cell-surface KDR (human, UniProt P35968 20-1356). Kind of assay: cell-based or functional assay.
The target in assay [3] is T1, KDR-alkaline phosphatase (AP) soluble …. Kind of assay: direct binding ELISA: Fab on KDR-coated plate, detected with anti-human Fab-HRP, A450. The method, then:
(§1) In a direct binding assay, various amounts of soluble Fab proteins were added to KDR-coated 96-well Maxi-sorp microtiter plates and incubated at RT for 1 h, after which the plates were washed 3 times with PBST. The plates were then incubated at RT for 1 h with 100 μl of a rabbit anti-human Fab antibody-HRP conjugate (Jackson ImunoResearch Laboratory Inc., West Grove, Pa.). The plates were washed and developed following the procedure described above for the phage ELISA. In a competitive KDR/VEGF blocking assay, various amounts of Fab proteins were mixed with a fixed amount of KDR-AP (100 ng) and incubated at RT for 1 h. The mixtures were then transferred to 96-well microtiter plates precoated with VEGF₁₆₅ (200 ng/well) and incubated at RT for an additional 2 h, after which the plates were washed 5 times and the substrate for AP (p-nitrophenyl phosphate, Sigma) was added. Absorbance at 405 nm was measured to quantify the bound KDR-AP molecules (8).
(§2) Clone D2C6 and D2H2 are more efficient binders, followed by clone D1H4 and D1F7. All four Fabs also block KDR binding to immobilized VEGF (FIG. 2B). […] Only clone D1F7 blocks VEGF from binding to Flk-1 (FIG. 2C), with an IC₅₀ of approximately 15 nM.

The target is the same in assay [4]. Kind of assay: competitive blocking ELISA: Fab pre-incubated with KDR-AP, then binding of KDR-AP to immobilised VEGF165, A405. The protocol:
FIG. 2 depicts binding to KDR, blocking of KDR/VEGF interaction and blocking of Flk-1/VEGF interaction by human anti-KDR Fab fragments. FIG. 2A: Dose-dependent binding of human anti-KDR Fab to immobilized KDR. FIG. 2B: Inhibition of KDR binding to immobilized VEGF by anti-KDR Fab. FIG. 2C: Inhibition of Flk-1 binding to immobilized VEGF by anti-KDR Fab. Various amounts of Fab proteins were incubated with a fixed amount of KDR-AP (2B) or Flk-1-AP (2C) in solution at RT for 1 h.
as §1, §2

Assay [5] has the same target. Kind of assay: BIAcore SPR, KDR immobilized. The source holds these as a separate data set.
The target is the same in assay [6]. Kind of assay: competitive blocking ELISA: antibody pre-incubated with KDR-AP, then binding of KDR-AP to immobilised VEGF165, A405. The method, then:
(§3) FIG. 6 depicts binding to KDR and blocking of KDR/VEGF interaction by human anti-KDR antibodies. FIG. 6A: Dose-dependent binding of anti-KDR to immobilized KDR. Various amounts of antibodies were incubated at RT for 1 h in 96-well plates coated with KDR FIG. 6B: Inhibition of binding of KDR to immobilized VEGF by human anti-KDR antibodies. Various amounts of the antibodies were incubated with a fixed amount of KDR-AP in solution at RT for 1 hr.
The efficacy of the anti-KDR antibodies for blocking KDR from binding to VEGF was measured with a competition assay. Various amounts of antibodies were mixed with a fixed amount of KDR-AP (100 ng) and incubated at RT for 1 h. The mixtures were then transferred to 96-well microtiter plates precoated with VEGF₁₆₅ (200 ng/well) and incubated at RT for an additional 2 h, after which the plates were washed 5 times and the substrate for AP (p-nitrophenyl phosphate, Sigma) was added, followed by reading the absorbance at 405 nm to quantify the bound KDR-AP molecules. […] The IC₅₀ is approximately 0.8 to 1.0 nM for all three antibodies.

Assay [7] shares this target. Kind of assay: direct binding ELISA: antibody on KDR-coated plate, detected with anti-human IgG Fc-HRP, A450. The method, then:
as §3
Anti-KDR antibodies were assessed for KDR binding and blocking of VEGF binding. In the direct binding assay, various amounts of antibodies were added to KDR-coated 96-well Maxi-sorp microtiter plates (Nunc, Roskilde, Denmark) and incubated at room temperature (RT) for 1 h, after which the plates were washed 3 times with PBS containing 0.1% Tween-20. The plates were then incubated at RT for 1 h with 100 μl of a rabbit anti-human IgG Fc-HRP conjugate (Jackson ImmunoResearch Laboratory Inc., West Grove, Pa.). The plates were washed and developed as above.

Chain of cell-surface KDR (P35968 20-1356): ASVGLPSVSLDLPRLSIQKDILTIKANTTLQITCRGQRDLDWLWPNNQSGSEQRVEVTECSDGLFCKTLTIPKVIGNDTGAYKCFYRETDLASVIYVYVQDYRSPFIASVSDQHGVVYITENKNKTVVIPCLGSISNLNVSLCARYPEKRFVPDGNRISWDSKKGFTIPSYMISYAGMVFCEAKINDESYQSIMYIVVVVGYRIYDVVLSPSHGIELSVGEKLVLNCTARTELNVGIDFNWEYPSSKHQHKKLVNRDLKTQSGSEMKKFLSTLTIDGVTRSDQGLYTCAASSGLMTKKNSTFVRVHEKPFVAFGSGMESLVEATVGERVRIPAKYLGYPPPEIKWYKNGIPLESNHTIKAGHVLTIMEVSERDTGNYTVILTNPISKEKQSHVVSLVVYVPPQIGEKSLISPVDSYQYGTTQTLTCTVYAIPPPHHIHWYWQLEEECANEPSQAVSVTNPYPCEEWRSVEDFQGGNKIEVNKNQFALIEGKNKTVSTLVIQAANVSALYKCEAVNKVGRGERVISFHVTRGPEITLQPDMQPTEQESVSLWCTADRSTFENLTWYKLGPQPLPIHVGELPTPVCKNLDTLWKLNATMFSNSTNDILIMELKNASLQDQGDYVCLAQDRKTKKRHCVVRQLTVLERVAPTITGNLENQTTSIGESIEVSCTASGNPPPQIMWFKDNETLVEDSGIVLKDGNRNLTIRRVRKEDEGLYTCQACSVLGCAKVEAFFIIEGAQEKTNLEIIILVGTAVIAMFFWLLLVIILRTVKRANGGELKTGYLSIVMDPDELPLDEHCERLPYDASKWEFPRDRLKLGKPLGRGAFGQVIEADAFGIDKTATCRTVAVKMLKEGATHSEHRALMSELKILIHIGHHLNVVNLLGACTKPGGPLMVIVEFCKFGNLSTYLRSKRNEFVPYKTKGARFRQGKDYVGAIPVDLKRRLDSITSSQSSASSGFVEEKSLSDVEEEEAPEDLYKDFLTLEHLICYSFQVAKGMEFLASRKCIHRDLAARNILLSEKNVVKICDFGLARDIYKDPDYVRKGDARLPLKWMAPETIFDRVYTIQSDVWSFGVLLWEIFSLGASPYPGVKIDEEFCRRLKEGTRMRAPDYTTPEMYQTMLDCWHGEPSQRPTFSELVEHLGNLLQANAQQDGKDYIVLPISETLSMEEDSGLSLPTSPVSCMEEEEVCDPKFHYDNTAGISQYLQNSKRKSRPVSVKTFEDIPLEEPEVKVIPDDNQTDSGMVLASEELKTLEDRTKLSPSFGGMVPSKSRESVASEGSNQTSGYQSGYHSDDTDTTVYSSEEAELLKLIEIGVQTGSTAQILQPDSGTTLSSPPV
T2 sequence (P35918 20-762): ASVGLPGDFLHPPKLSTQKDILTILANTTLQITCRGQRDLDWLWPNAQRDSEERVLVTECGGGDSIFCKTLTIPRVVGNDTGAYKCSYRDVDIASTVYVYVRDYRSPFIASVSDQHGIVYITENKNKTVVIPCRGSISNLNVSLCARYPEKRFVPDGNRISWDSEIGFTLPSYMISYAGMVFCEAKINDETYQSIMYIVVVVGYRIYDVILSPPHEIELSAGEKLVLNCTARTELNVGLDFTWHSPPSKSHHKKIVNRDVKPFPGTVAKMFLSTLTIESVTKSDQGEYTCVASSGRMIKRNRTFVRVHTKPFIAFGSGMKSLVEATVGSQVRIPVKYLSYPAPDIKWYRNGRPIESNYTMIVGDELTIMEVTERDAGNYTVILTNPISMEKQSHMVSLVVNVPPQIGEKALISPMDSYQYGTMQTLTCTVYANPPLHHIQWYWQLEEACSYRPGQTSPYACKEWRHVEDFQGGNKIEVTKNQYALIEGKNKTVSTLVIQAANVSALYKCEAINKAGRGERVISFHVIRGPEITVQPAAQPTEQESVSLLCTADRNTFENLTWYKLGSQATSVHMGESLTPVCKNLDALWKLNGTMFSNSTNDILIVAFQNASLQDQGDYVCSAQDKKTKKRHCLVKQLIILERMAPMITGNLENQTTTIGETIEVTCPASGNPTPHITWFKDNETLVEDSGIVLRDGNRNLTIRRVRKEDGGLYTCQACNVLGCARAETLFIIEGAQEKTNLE
T1 sequence (P35968 20-764): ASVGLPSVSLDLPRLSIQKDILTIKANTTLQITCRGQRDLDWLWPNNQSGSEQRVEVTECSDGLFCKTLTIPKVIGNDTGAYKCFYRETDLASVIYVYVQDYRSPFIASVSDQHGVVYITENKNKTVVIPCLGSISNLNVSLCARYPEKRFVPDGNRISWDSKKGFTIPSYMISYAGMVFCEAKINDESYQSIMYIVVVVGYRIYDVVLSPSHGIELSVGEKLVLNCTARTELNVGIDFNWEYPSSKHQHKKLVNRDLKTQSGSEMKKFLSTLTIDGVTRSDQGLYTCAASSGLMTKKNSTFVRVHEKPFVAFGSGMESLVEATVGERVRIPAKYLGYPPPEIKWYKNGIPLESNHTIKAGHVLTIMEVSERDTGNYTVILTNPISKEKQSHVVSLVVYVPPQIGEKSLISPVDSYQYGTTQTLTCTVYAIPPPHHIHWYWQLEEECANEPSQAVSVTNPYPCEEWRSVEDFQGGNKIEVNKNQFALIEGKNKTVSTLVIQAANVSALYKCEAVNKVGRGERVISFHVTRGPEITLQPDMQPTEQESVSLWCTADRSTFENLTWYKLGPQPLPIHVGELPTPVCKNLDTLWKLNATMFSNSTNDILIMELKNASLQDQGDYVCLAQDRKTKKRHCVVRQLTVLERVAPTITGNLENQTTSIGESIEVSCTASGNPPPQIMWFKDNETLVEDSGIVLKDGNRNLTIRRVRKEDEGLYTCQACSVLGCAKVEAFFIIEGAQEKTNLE

B1: D2C6 Fab (Fab, V domains shown)
VH: EVQLVQSGGGLVKPGGSLRLSCAASGFTFSSYSMNWVRQAPGKGLEWVSSISSSSSYIYYADSVKGRFTISRDNAKNSLYLQMNSLRAEDTAVYYCARVTDAFDIWGQGTMVTVSS
VL: EIVMTQSPATLSLSPGERATLSCRASQSVSSYLAWYQQKPGQAPRLLIYDSSNRATGIPARFSGSGSGTDFTLTISSLEPEDFATYYCLQHNTFPPTFGQGTKVEIK
notes: Soluble human Fab from E. coli HB2151; also called Hu-2C6 Fab; Hu-2C6
By Kd is commonly meant the free concentration of one partner at which half of the binding sites on the other are occupied at equilibrium, for simple one-to-one binding. A low value points to a tighter complex. A word on the koff: it is a measure of how fast the partners let go of each other. A high value points to a short-lived complex. As a reminder, the kon is the rate constant with which the complex forms. By EC50 (read off the curve) is commonly meant the concentration that produces a half-maximal response. As for B1, in assay [1], the Kd stood at 3.6 nM, the off-rate constant (koff) was 0.00055 s⁻¹ and the kon was 171000 M⁻¹ s⁻¹. Also, in assay [2], the binding result is on record as “no binding (tested: about 60 nM)”. In the assay with cell-surface KDR, the “EC50 of inhibition of VEGF-stimulated [3H]-TdR incorporation in HUVEC” value (shortened to “EC50 of inhibition of VEGF-stimulated”) was ~0.5 nM. Besides, in assay [3], the concentration giving a half-maximal response (EC50 (read off the curve)) is ~0.7 nM. Further, the “IC50 (read off the curve)” value in assay [4] is ~3 nM.

B2: D1H4 Fab (Fab, V domains shown)
VH: EVQLVQSGGGLVKPGGSLRLSCAASGFTFSSYSMNWVRQAPGKGLEWVSSISSSSSYIYYADSVKGRFTISRDNAKNSLYLQMNSLRAEDTAVYYCARVTDAFDIWGQGTMVTVSS
VL: QSALTQPASLSGSPGQSITISCAGTTTDLTYYDLVSWYQQHPGQAPKLVIYDGNKRPSGVSNRFSGSKSGNTASLTISGLQAEDEADYYCNSYVSSRFYVFGTGTKVTVL
notes: Soluble human Fab from E. coli HB2151; also called DlH4; Hu-1H4 Fab
B2: in assay [2], the binding result is “no binding (tested: about 60 nM)”. Moreover, in the assay with cell-surface KDR, the “EC50 of inhibition of VEGF-stimulated” value was ~0.5 nM. For the same molecule, in assay [3], the concentration giving a half-maximal response (EC50 (read off the curve)) is ~1 nM. Moreover, the “IC50 (read off the curve)” value in assay [4] was ~2 nM.

B3: IMC-2C6 IgG (antibody, V domains shown)
VH: EVQLVQSGGGLVKPGGSLRLSCAASGFTFSSYSMNWVRQAPGKGLEWVSSISSSSSYIYYADSVKGRFTISRDNAKNSLYLQMNSLRAEDTAVYYCARVTDAFDIWGQGTMVTVSS
VL: EIVMTQSPATLSLSPGERATLSCRASQSVSSYLAWYQQKPGQAPRLLIYDSSNRATGIPARFSGSGSGTDFTLTISSLEPEDFATYYCLQHNTFPPTFGQGTKVEIK
B3: in assay [1], the Kd came out at 0.2 nM, the koff was determined as 4.3e-05 s⁻¹ and the kon was determined as 212000 M⁻¹ s⁻¹. For the same molecule, the “fold change of Kd against the monovalent Hu-2C6 Fab” value in assay [5] is ~18 fold. In addition, the “IC50 (read off the curve)” value in assay [6] is ~0.7 nM. The “EC50 (read off the curve)” value in assay [7] was ~0.4 nM.

B4: Hu-1121 Fab (Fab, V domains shown)
VH: EVQLVQSGGGLVKPGGSLRLSCAASGFTFSSYSMNWVRQAPGKGLEWVSSISSSSSYIYYADSVKGRFTISRDNAKNSLYLQMNSLRAEDTAVYYCARVTDAFDIWGQGTMVTVSS
VL: DIQMTQSPSSVSASIGDRVTITCRASQGIDNWLGWYQQKPGKAPKLLIYDASNLDTGVPSRFSGSGSGTYFTLTISSLQAEDFAVYFCQQAKAFPPTFGGGTKVDIK
notes: see also CLM-00007) with new light chains
In assay [1], B4 had a Kd of 0.11 nM, a koff of 3.1e-05 s⁻¹ and a kon of 296000 M⁻¹ s⁻¹. Further, the “fold improvement in Kd against Hu-2C6” value in assay [5] stood at 33 fold.

B5: IMC-1121 IgG (antibody, V domains shown)
VH: EVQLVQSGGGLVKPGGSLRLSCAASGFTFSSYSMNWVRQAPGKGLEWVSSISSSSSYIYYADSVKGRFTISRDNAKNSLYLQMNSLRAEDTAVYYCARVTDAFDIWGQGTMVTVSS
VL: DIQMTQSPSSVSASIGDRVTITCRASQGIDNWLGWYQQKPGKAPKLLIYDASNLDTGVPSRFSGSGSGTYFTLTISSLQAEDFAVYFCQQAKAFPPTFGGGTKVDIK
In assay [1], B5 had a Kd of 0.05 nM, a koff of 2.5e-05 s⁻¹ and a kon of 479000 M⁻¹ s⁻¹. In addition, the “fold increase in overall binding avidity against Hu-1121 Fab” value in assay [5] is ~2 fold. For the same molecule, the “IC50 (read off the curve)” value in assay [6] was ~0.8 nM. Also, the “EC50 (read off the curve)” value in assay [7] is ~0.3 nM.

B6: D2H2 Fab (Fab, V domains shown)
VH: EVQLVQSGGGLVKPGGSLRLSCAASGFTFSSYSMNWVRQAPGKGLEWVSSISSSSSYIYYADSVKGRFTISRDNAKDSLYLQMNSLRAEDTAVYYCARVTDAFDIWGQGTMVTVSS
VL: DIQLTQSPSSVSASVGDRVTITCRASQGISSRLAWYQQKPGKAPKLLIYAASSLQTGVPSRFSGSGSGTDFTLTISSLQPEDFATYYCQQANRFPPTFGPGTKVDIK
notes: Soluble human Fab from E. coli HB2151; also called Hu-2H2 Fab
With B6, the binding result in assay [2] was “no binding (tested: about 60 nM)”. In the assay with cell-surface KDR, the “EC50 of inhibition of VEGF-stimulated” value is ~0.8 nM. Further, the “EC50 (read off the curve)” value in assay [3] is ~0.7 nM. For the same molecule, in assay [4], the “IC50 (read off the curve)” value was ~2 nM.

B7: D1F7 Fab (Fab, V domains shown)
VH: EVQLVQSGAEVKKPGASVKVSCKASGGTFSSYAISWVRQAPGQGLEWMGGIIPIFGTANYAQKFQGRVTFTADKSTSTAYMELRSLRSDDTAVYYCARGYDYYDSSGVASPFDYWGQGTLVTVSS
VL: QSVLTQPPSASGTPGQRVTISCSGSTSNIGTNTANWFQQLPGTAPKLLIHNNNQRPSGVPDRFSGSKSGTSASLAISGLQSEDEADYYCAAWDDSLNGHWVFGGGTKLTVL
In the case of B7, in the assay with cell-surface KDR, the “EC50 of inhibition of VEGF-stimulated” value was ~15 nM.

The record behind these values is patent US20050234225A1 (Eli Lilly, published 2005).
